Results: US20210032351A1 (XDCEXPLORER SHANGHAI, published 2021)
Positions count from the first letter of the chain named.

B1: Murine anti-63A10 (antibody, V domains shown)
VH: QVQLQQSGAELARPGASVKMSCKASGYTFISFTMHWVKQRPGQGLEWIGYINPNSGYTKYNQKFKDKATLTAGQSSSTAYMQLSSLTSEDSAVYYCTRGGGRGFAYWGQGTLVTVSA
VL: DILMTQSPSSMSVSLGDTVTITCHASQDINSNIGWLQQKPGKSFKALIYHGTNLEDGVPSRFSGSGSGADYSLTISSLESEDFADYYCVQYAQFPFTFGSGTKLEIK
notes: Mouse hybridoma antibody; also called 63A10A7
B2: Murine anti-64F1 (antibody, V domains shown)
VH: B1 VH with I30S, F32Y, V37A, N54S, G73D, Q74K, A92I, T97A
VL: QIVLTQSPAIMSASPGERVTMTCSASSSVSYMYWYQQKPGSSPRLLIYDTSNLASGVPVRFSGSGSGTSYSLTISRVEAEDAATYYCQQWSSYSLTFGAGTKLELK
notes: Mouse hybridoma antibody; also called 64F1F8
B3: Murine anti-7E5 (antibody, V domains shown)
VH: EIQLQQSGPELVKPGASVKVSCKASGYSFTDYNMYWVKQSHGKSLEWIGYVDPSNGGTNYNQKFKGKATLTVDKSSSTAFMHLNSLTSEDSAVYYCARGFFDYWGQGTTLTVSS
VL: DIVMTQSPSSLTVTAGEKVTMSCKSSQSLLNSGNQKNYLTWYQQKPGQPPKLLIYWASNRESGVPDRFTGSGSGKDFTLTISSVQAEDLAVYYCQNDYRYPVTFGAGTKLELK
notes: Mouse hybridoma antibody; also called 7E5-2A9; murine anti-7E5-2
B4: Murine anti-75G7 (antibody, V domains shown)
VH: EVQLQQSGPELVKPGASVKIPCKASGYTFTDYNMDWVKQSHGKSLEWIGDINPNNGDTIYNQKFKGKATLTVDKSSSTAYMELRSLTSEDTAVYYCARGDYDGYYPVYYAMDYWGQGTSVTVSS
VL: ENVLTQSPAIMSASPGEKVTMTCRASSSVSSSYLHWYQQKSGASPKLWIFSTSNLAAGVPARFSGSGSGTSYSLTVSSVEAEDAATYYCQQYSGYPLTFGAGTKLELK
notes: Mouse hybridoma antibody; also called 75G7C6

Target: T1, human EGFRvIII protein on the surface of U87MG-hEGFRvIII cells (human, UniProt P00533 25-1210)
T1 construct: whole, on cells; Stably transfected U87MG cells; also called mutant EGFRvIII protein; U87MG-EGFRvIII
Experiment: immunohistochemical staining, human glioma tissue chip

Row | Binder | positive samples of 70 GBM samples
1 | B1 | 24 samples
2 | B2 | 24 samples
3 | B3 | 24 samples

Target: T2, wild-type human EGFR protein on the surface of cells (A431, HEB, U87MG) (human, UniProt P00533 25-1210)
T2 construct: whole, on cells; One molecule for all three cell lines; the cell line is named under assay; also called wild-type EGFR
Experiment: FACS on A431 cells
Procedure: (§1) The collected cells are suspended to 2×10⁶ cells/mL with an FACS buffer (HBSS+1% BSA, with the percentage being the mass percentage), added to a 96-well FACS reaction plate at 100 μL/well, then added with 100 μL/well of the purified EGFRvIII antibody (samples to be tested) obtained in example 2, and incubated on ice for 2 hours. The plate is centrifugally washed twice with the FACS buffer, added with 100 μL/well of a fluorescence (Alexa 488) labeled secondary antibody (purchased from Invitrogen), and then incubated on ice for 1 hour. The plate is centrifugally washed 3 times with the FACS buffer, added with 100 μL/well of a fixing solution [4% (v/v) paraformaldehyde] for suspending the cells, and centrifugally washed twice with the FACS buffer after 10 minutes. The cells are suspended in 100 μL of the FACS buffer, and the results are detected and analyzed by FACS (FACS Calibur, purchased from BD). Data analysis is performed by using the software (CellQuest) to obtain the mean fluorescence intensity (MFI) of the cells. Data is further analyzed by using the software (GraphPad Prism5) to perform data fitting and calculate EC50. […] A431 cells (human epidermal cell cancer cell lines) have a large amount of wild-type EGFR protein expressed on the surface thereof. […] U87MG cells (human glioma cell lines) have a small amount of wild-type EGFR protein expressed on the surface thereof, while HEB cells (human glioma cell lines) have a high level of wild-type EGFR protein expression on the surface thereof.

Row | Binder | binding result
4 | B3 | no binding

Target: T3, biotin-labeled recombinant EGFRvIII protein (UniProt P00533 25-645, biotin-labeled)
T3 construct: the construct is not described
Experiment: competitive ELISA; competitor Murine anti-63A10
Procedure: (§2) The purified antibodies to be tested are diluted with PBS to 1 μg/mL, coated onto a 96-well high-adsorption ELISA plate at 50 μL/well at 4° C. overnight, and then blocked with 250 μL of the blocking solution [PBS containing 0.01% (v/v) Tween20 and 1% (w/w) BSA] for one hour at room temperature, and each well is added with 0.05 μg/mL of the biotin-labeled recombinant EGFRvIII protein. Simultaneously, 5 μg/mL of the competitive antibody (i.e., the purified EGFRvIII antibody obtained in example 2) is added thereto, and incubated at 25° C.−37° C. for 1 to 2 hours. The plate is washed 3 times with the plate washing solution [PBS containing 0.01% (v/v) Tween20], and added with HRP (horseradish peroxidase) labeled streptavidin (purchased from Sigma). The plate is incubated for 0.5 hour at 37° C., and then washed 3 times with the plate washing solution [PBS containing 0.01% (v/v) Tween20]. The plate is added with 100 μL of TMB substrate/well, incubated for 30 minutes at room temperature, and then added with 100 μL of stopping solution (1.0N HCl)/well. A450 nm value is read using an ELISA plate reader (SpectraMax 384 plus, purchased from Molecular Device), and the results are shown in FIG. 6.

Row | Binder | competition rate
5 | B1 | 89%
6 | B2 | 81%
7 | B3 | 70%
8 | B4 | 9%

Target: T3, biotin-labeled recombinant EGFRvIII …
Experiment: competitive ELISA; competitor Murine anti-64F1
Procedure: as §2

Row | Binder | competition rate
9 | B1 | 73%
10 | B2 | 72%
11 | B3 | 71%
12 | B4 | -3%

Target: T1, human EGFRvIII protein on the surface …
Experiment: FACS on U87MG-hEGFRvIII cells
Procedure: as §1, with “The cells are washed twice with the HBSS buffer and are counted, and then the cells are diluted with the HBSS buffer to 2×10⁶ cells/ml, added with 1% goat serum blocking solution, with the percentage being the mass percentage, and incubated on ice for 30 minutes, and then centrifugally washed twice with the HBSS buffer. The collected” for “The collected”

Row | Binder | EC50
13 | B1 | 3.1 nM
14 | B2 | 2 nM
15 | B3 | 2.9 nM
16 | B4 | 4.8 nM

Target: T3, biotin-labeled recombinant EGFRvIII …
Experiment: competitive ELISA; competitor Control antibody 02
Procedure: as §2

Row | Binder | competition rate
17 | B1 | 79%
18 | B2 | 69%
19 | B3 | 66%
20 | B4 | -2%

Target: T3, biotin-labeled recombinant EGFRvIII …
Experiment: competitive ELISA; competitor Murine anti-75G7
Procedure: as §2

Row | Binder | competition rate
21 | B1 | 20%
22 | B2 | 13%
23 | B3 | 23%
24 | B4 | 67%

Target: T3, biotin-labeled recombinant EGFRvIII …
Experiment: competitive ELISA; competitor Control antibody 01
Procedure: as §2

Row | Binder | competition rate
25 | B1 | -3%
26 | B2 | -5%
27 | B3 | -2%
28 | B4 | -5%

Target: T3, biotin-labeled recombinant EGFRvIII …
Experiment: competitive ELISA; competitor Murine anti-7E5
Procedure: as §2

Row | Binder | competition rate
29 | B1 | 82%
30 | B2 | 80%
31 | B3 | 85%
32 | B4 | 3%
